Changes are numbered by the printed parent chain. Names may count otherwise.
Key:
[1] = target: T1, IL-2 ("IL-2 proteins" coated on the ELISA plate) (UniProt P60568 21-153, limits assumed); assay: ELISA, IL-2 coated, Fc-mask fusion titrated, pH 7.4
Method: (§1) 10 μg/ml of IL-2 proteins in PBS were seeded to the 96-well plate at 100 μl/well and coated at 4 degree for overnight. The wells were washed by PBS three times and blocked with 100 μl 2% milk/PBS for 1 hr. Then the wells were washed three times by PBS and 100 μl protein samples with 3-fold serial dilution were added to the wells for 1 hr incubation at room temperature. After three times of PBS washing, 100 μl of HRP conjugated anti-IgG antibody were added and incubated at RT for 1 hr. Subsequently, the wells were washed again by PBS for 3 times, detection reagents were added and OD450 nm were measured.
(§2) In order to discover improved versions of the IL-2 antagonist or mask with higher folds of activations upon protease cleavage, a number of mutations in the IL-2Rβ extracellular domain were constructed.

[2] = target: T1, IL-2 ("IL-2 proteins" coated on the …); assay: ELISA, IL-2 coated, Fc-mask fusion titrated, pH 6.4
Method: as §1, §2

[3] = target: T1, IL-2 ("IL-2 proteins" coated on the …); assay: ELISA, IL-2 coated, pH 6.4; reference understood as wild type (SEQ ID NO: 195)
Method: as §1, §2

[4] = target: T1, IL-2 ("IL-2 proteins" coated on the …); assay: ELISA, IL-2 coated, pH 6.4; reference wild type
Method: as §1, §2

[5] = target: T1, IL-2 ("IL-2 proteins" coated on the …); assay: ELISA, IL-2 coated, pH 7.4
Method: as §1, §2

[6] = target: T1, IL-2 ("IL-2 proteins" coated on the …); assay: ELISA, IL-2 coated, pH 7.4 and pH 6.4; reference understood as wild type (SEQ ID NO: 195)
Method: as §1, §2

T1 sequence (P60568 21-153 limits assumed): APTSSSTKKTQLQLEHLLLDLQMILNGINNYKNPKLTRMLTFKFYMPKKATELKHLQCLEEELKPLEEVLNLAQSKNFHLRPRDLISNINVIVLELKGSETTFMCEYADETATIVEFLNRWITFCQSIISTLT

B1: Fc with LALA and hole mutation (L234A-L235A-Y407T) with beta subunit (SEQ ID NO: 195), expressed as homodimer (Fc fusion)
chain: DKTHTCPPCPAPEAAGGPSVFLFPPKPKDTLMISRTPEVTCVVVDVSHEDPEVKFNWYVDGVEVHNAKTKPREEQYNSTYRVVSVLTVLHQDWLNGKEYKCKVSNKALPAPIEKTISKAKGQPREPQVYTLPPSREEMTKNQVSLTCLVKGFYPSDIAVEWESNGQPENNYKTTPPVLDSDGSFFLTSKLTVDKSRWQQGNVFSCSVMHEALHNHYTQKSLSLSPGKGGGGSGGGGSGGGGSLSGRSDNHGGGGSAVNGTSQFTCFYNSRANISCVWSQDGALQDTSCQVHAWPDRRRWNQTCELLPVSQASWACNLILGAPDSQKLTTVDIVTLRVLCREGVRWRVMAIQDFKPFENLRLMAPISLQVVHVETHRCNISWEISQASHYFERHLEFEARTLSPGHTWEEAPLLTLKQKQEWICLETLTPDTQYEFQVRVKPLQGEFTTWSPWSQPLAFRTKPAALGKDT
notes: also called WT
Kd [1]: 219 µg/mL | Kd [2]: 269 µg/mL

B2: Fc with LALA and hole mutation (L234A-L235A-Y407T) fused with beta subunit containing mutation (E136Q) (SEQ ID NO: 204), homodimer (Fc fusion)
chain: DKTHTCPPCPAPEAAGGPSVFLFPPKPKDTLMISRTPEVTCVVVDVSHEDPEVKFNWYVDGVEVHNAKTKPREEQYNSTYRVVSVLTVLHQDWLNGKEYKCKVSNKALPAPIEKTISKAKGQPREPQVYTLPPSREEMTKNQVSLTCLVKGFYPSDIAVEWESNGQPENNYKTTPPVLDSDGSFFLTSKLTVDKSRWQQGNVFSCSVMHEALHNHYTQKSLSLSPGKGGGGSGGGGSGGGGISSGLLSSGGSGGSLSGRSDNHGGGGSAVNGTSQFTCFYNSRANISCVWSQDGALQDTSCQVHAWPDRRRWNQTCELLPVSQASWACNLILGAPDSQKLTTVDIVTLRVLCREGVRWRVMAIQDFKPFENLRLMAPISLQVVHVETHRCNISWEISQASHYFQRHLEFEARTLSPGHTWEEAPLLTLKQKQEWICLETLTPDTQYEFQVRVKPLQGEFTTWSPWSQPLAFRTKPAALGKDT
fold better binding affinity at pH 6.4 [3]: 2 fold | Kd [2]: 128 µg/mL

B3: Fc-mask fusion with beta subunit containing mutation (E136Q/H138R) (SEQ ID NO: 205), homodimer (Fc fusion)
chain: B2 chain with H406R
Kd [1]: 269 µg/mL | Kd [2]: 105 µg/mL | fold enhancement of binding affinity at pH 6.4 against wild type [4]: 2 fold

B4: Fc with LALA and hole mutation (L234A-L235A-Y407T) fused with beta subunit containing mutation R15Y (SEQ ID NO: 199), homodimer (Fc fusion)
chain: B2 chain with R283Y, Q404E
binding result [5]: no binding

B5: Fc with LALA and hole mutation (L234A-L235A-Y407T) fused with beta subunit containing mutation (S69H) (SEQ ID NO: 201), homodimer (Fc fusion)
chain: B2 chain with S337H, Q404E
fold better binding affinity at pH 6.4 [3]: 2 fold | Kd [2]: 187 µg/mL

B6: Fc with LALA and hole mutation (L234A-L235A-Y407T) fused with beta subunit containing mutation (V75F) (SEQ ID NO: 203), homodimer (Fc fusion)
chain: B2 chain with V343F, Q404E
binding result [5]: no binding

B7: Fc with LALA and hole mutation (L234A-L235A-Y407T) fused with beta subunit containing mutation (D68E) (SEQ ID NO: 200), homodimer (Fc fusion)
chain: B2 chain with D336E, Q404E
Kd [1]: 124 µg/mL | fold increase of binding affinity at pH 7.4 and pH 6.4 [6]: 2 fold | Kd [2]: 118 µg/mL

B8: Fc with LALA and hole mutation (L234A-L235A-Y407T) fused with beta subunit containing mutation (V75Q) (SEQ ID NO: 202), homodimer (Fc fusion)
chain: B2 chain with V343Q, Q404E
binding result [5]: no binding

From patent publication US20210260163A1 (ASKGENE PHARMA, published 2021)
